In this test the target is G-CSF receptor. Description: cell-based or functional assay.

As to “G-CSF[C17A] (from UniProt P09919 31-207) (ligand)”, the EC50/Neupogen (reporter activity in cells expressing the G-CSF receptor) (ratio to Neupogen) is 0.66.
Under “Wild-type G-CSF (from UniProt P09919 31-207) (ligand)” stands 0.38.

The values above are taken from US20040254351A1.
